In publication PMC4838890, “Dynamic and flexible H3K9me3 bridging via HP1β dimerization establishes a plastic state of condensed chromatin” (Nature Communications, 2016):

How the values were obtained:
[1] = system: chromatin reporter array in U2OS cells; experiment: Chromatin reporter array (LacO) unfolding; format: cell-based; details: doxycycline 1 μg ml^−1 24 h, LacI-tethered, n>300
From the text: Figure 7 hHP1β dimerization is required for maintaining condensed cellular chromatin states. (a) Schematic diagram of the transgene system used to test chromatin compaction effects of hHP1β. A tandem array of the construct has been integrated into the genome of U2OS mammalian cells. Dox, doxycycline; rtTA, reverse tetracycline-controlled TET-VP16 transactivator, whose binding to tetracycline responsive elements (RE) is activated by doxycycline. (b) Together with mCherry-LacI, the indicated fusion proteins were transiently expressed in U2OS cells containing the chromatin reporter array as described in a. Representative confocal images in the absence or after induction of transcription from the array with doxycycline (Dox) are shown. DNA was stained with DAPI. Inlets show enlarged chromatin reporter array; scale bar, 10 μm. (c) Quantification of the results shown in b together with results of similar experiments using additional hHP1β mutant proteins. Averages of three independent experiments are plotted; error bars represent s.d.; n>300 for each condition; asterisks represent P<0.05 according to Student's t-test.
U2OS 2-6-3 CLTon cells[38] were kindly provided by Dr Supriya Prasanth (University of Illinois, IL, USA) and maintained in DMEM (high glucose+GlutaMax) (GIBCO/Invitrogen, Darmstadt, Germany) supplemented with 10% (v/v) TET system approved fetal bovine serum (Clontech, Saint-Germain-en-Laye, France), 50 μg ml^−1 hygromycin (Carl Roth, Karlsruhe, Germany) and 200 μg ml^−1 G418 (Clontech, Saint-Germain-en-Laye, France). For fluorescence microscopy, cells were grown on coverslips in a six-well plate without antibiotics. 500 ng plasmid DNA was transfected using Lipofectamine LTX and Plus reagent (Invitrogen, Darmstadt, Germany). 20 h post transfection, cells were treated with 1 μg ml^−1 doxycycline for 24 h for induction of rtTA expression. Cells were washed twice with PBS and fixed with 3.7% (v/v) formaldehyde/PBS for 10 min at RT. […] P values (according to Student's t-test) were calculated using GraphPad QuickCals (GraphPad, CA, USA).

H3K9me3 oligonucleosomes = experiment: Fluorescence correlation spectroscopy (FCS), H3K9me3 oligonucleosomes; format: biochemical, Xenopus laevis; details: 150 mM NaCl
Protocol: All fluorescence measurements were performed with a pulsed custom-built mode-locked Ti:Sa-Laser and a confocal two-photon fluorescence microscope setup. Detailed description of the experimental setup and the measurement procedure are available on request. In all cases 10 nM of the acceptor labelled species, ATTO 610-labelled nucleosomal array, was incubated with 20–200 μM of recombinant hHP1β in 10 μl of 10 mM triethanolamine HCl (pH 7.5), 0.1 mM EDTA, 150 mM NaCl at 4°C. For each sample the fluorescence correlation curve, fluorescence intensity and anisotropy values were determined at 22°C. Every data point was averaged over a minimum of 15 single measurements of 10 s each. Excitation was by two-photon mode.
The fluorescence data were analysed using the correlation function [drawing 1] , and the equation for free diffusion of particles [drawing 2] , where I(t) is the fluorescence intensity measured at time t, N the particle number, τD the diffusion time, and r0=0.25 the axis ratio of the focal region, considering the dimensions of a Gaussian beam waist.
Supplementary Figure 3: Analysis of chromatin clustering m ediated by hHP1β.
(a) Schematic representation of a stepwise precipitation and resolubilization experiment.
(b) Results of stepwise precipitation and resolubilization after clustering H3K9me3-oligonucleosomes by hHP1β at different concentrations. DNA remaining in the supernatant after centrifugation was incubated with EtBr and measured by fluorescence reading. Data were normalized to amounts present in the input.
Results of a representative experiment are shown.
(c) Instrumental setup used for two -photon fluorescence correlation spectroscopy (FCS). The beam of a pulsed Ti:Sa-Laser is reflected into a water immersion objective (O) via a dichroic mirror (M). The fluorescence light transmitted through this dichroic mirror is split up by a second dichroic mirror. Blow- […]
F: filter, L: lens, M: dichroic mirror, O:objective, PD:
(d) Scheme of the strategy used for FCS measurements. DNA of oligonucleosomes was labeled at the 5’- […]

Substance	unfolding of the array on activation [1]	complex formation by clustering (FCS) (H3K9me3 oligonucleosomes)	maximum hydrodynamic radius (H3K9me3 oligonucleosomes; 10 nM ATTO 610-labelled array, highest protein concentration) [nm]	EC50 (H3K9me3 oligonucleosomes; 23°C, read-out: half-maximal effect, FCS) [µM]
hHP1β I161A: CSD point mutant of hHP1β incapable of dimerization	largely reduced by tethering of LacI-YFP-hHP1β WT but not the dimerization deficient I161A mutant	No such complex formation by clustering	–	–
hHP1β WT: recombinant human heterochromatin protein 1β (GenBank NM_001127228), 185 aa	largely reduced	–	450	3.5
